B1: hMR: Mineralocorticoid Receptor (NR3C2, MR), cDNA driver (protein, UniProt P08235 1-984, looked up)
Mineralocorticoid receptor: METKGYHSLPEGLDMERRWGQVSQAVERSSLGPTERTDENNYMEIVNVSCVSGAIPNNSTQGSSKEKQELLPCLQQDNNRPGILTSDIKTELESKELSATVAESMGLYMDSVRDADYSYEQQNQQGSMSPAKIYQNVEQLVKFYKGNGHRPSTLSCVNTPLRSFMSDSGSSVNGGVMRAVVKSPIMCHEKSPSVCSPLNMTSSVCSPAGINSVSSTTASFGSFPVHSPITQGTPLTCSPNVENRGSRSHSPAHASNVGSPLSSPLSSMKSSISSPPSHCSVKSPVSSPNNVTLRSSVSSPANINNSRCSVSSPSNTNNRSTLSSPAASTVGSICSPVNNAFSYTASGTSAGSSTLRDVVPSPDTQEKGAQEVPFPKTEEVESAISNGVTGQLNIVQYIKPEPDGAFSSSCLGGNSKINSDSSFSVPIKQESTKHSCSGTSFKGNPTVNPFPFMDGSYFSFMDDKDYYSLSGILGPPVPGFDGNCEGSGFPVGIKQEPDDGSYYPEASIPSSAIVGVNSGGQSFHYRIGAQGTISLSRSARDQSFQHLSSFPPVNTLVESWKSHGDLSSRRSDGYPVLEYIPENVSSSTLRSVSTGSSRPSKICLVCGDEASGCHYGVVTCGSCKVFFKRAVEGQHNYLCAGRNDCIIDKIRRKNCPACRLQKCLQAGMNLGARKSKKLGKLKGIHEEQPQQQQPPPPPPPPQSPEEGTTYIAPAKEPSVNTALVPQLSTISRALTPSPVMVLENIEPEIVYAGYDSSKPDTAENLLSTLNRLAGKQMIQVVKWAKVLPGFKNLPLEDQITLIQYSWMCLSSFALSWRSYKHTNSQFLYFAPDLVFNEEKMHQSAMYELCQGMHQISLQFVRLQLTFEEYTIMKVLLLLSTIPKDGLKSQAAFEEMRTNYIKELRKMVTKCPNNSGQSWQRFYQLTKLLDSMHDLVSDLLEFCFYTFRESHALKVEFPAMLVEIISDQLPKVESGNAKPLYFHRK
B2: NR4a2: NR4a2 (NR4A2; NURR1), nuclear hormone receptor cDNA driver (protein, UniProt P43354 1-598, looked up)
Nuclear receptor subfamily 4 …: MPCVQAQYGSSPQGASPASQSYSYHSSGEYSSDFLTPEFVKFSMDLTNTEITATTSLPSFSTFMDNYSTGYDVKPPCLYQMPLSGQQSSIKVEDIQMHNYQQHSHLPPQSEEMMPHSGSVYYKPSSPPTPTTPGFQVQHSPMWDDPGSLHNFHQNYVATTHMIEQRKTPVSRLSLFSFKQSPPGTPVSSCQMRFDGPLHVPMNPEPAGSHHVVDGQTFAVPNPIRKPASMGFPGLQIGHASQLLDTQVPSPPSRGSPSNEGLCAVCGDNAACQHYGVRTCEGCKGFFKRTVQKNAKYVCLANKNCPVDKRRRNRCQYCRFQKCLAVGMVKEVVRTDSLKGRRGRLPSKPKSPQEPSPPSPPVSLISALVRAHVDSNPAMTSLDYSRFQANPDYQMSGDDTQHIQQFYDLLTGSMEIIRGWAEKIPGFADLPKADQDLLFESAFLELFVLRLAYRSNPVEGKLIFCNGVVLHRLQCVRGFGEWIDSIVEFSSNLQNMNIDISAFSCIAALAMVTERHGLKEPKRVEELQNKIVNCLKDHVTFNNGGLNRPNYLSKLLGKLPELRTLCTQGLQRIFYLKLEDLVPPPAIIDKLFLDTLPF
B3: CTF3: COUP-TF3 (NR2F6), cDNA driver (protein, UniProt P10588 1-404, looked up)
Nuclear receptor subfamily 2 …: MAMVTGGWGGPGGDTNGVDKAGGYPRAAEDDSASPPGAASDAEPGDEERPGLQVDCVVCGDKSSGKHYGVFTCEGCKSFFKRSIRRNLSYTCRSNRDCQIDQHHRNQCQYCRLKKCFRVGMRKEAVQRGRIPHSLPGAVAASSGSPPGSALAAVASGGDLFPGQPVSELIAQLLRAEPYPAAAGRFGAGGGAAGAVLGIDNVCELAARLLFSTVEWARHAPFFPELPVADQVALLRLSWSELFVLNAAQAALPLHTAPLLAAAGLHAAPMAAERAVAFMDQVRAFQEQVDKLGRLQVDSAEYGCLKAIALFTPDACGLSDPAHVESLQEKAQVALTEYVRAQYPSQPQRFGRLLLRLPALRAVPASLISQLFFMRLVGKTPIETLIRDMLLSGSTFNWPYGSGQ
B4: PR: Progesterone Receptor (NR3C3), cDNA driver (protein, UniProt P06401 1-933, looked up)
Progesterone receptor: MTELKAKGPRAPHVAGGPPSPEVGSPLLCRPAAGPFPGSQTSDTLPEVSAIPISLDGLLFPRPCQGQDPSDEKTQDQQSLSDVEGAYSRAEATRGAGGSSSSPPEKDSGLLDSVLDTLLAPSGPGQSQPSPPACEVTSSWCLFGPELPEDPPAAPATQRVLSPLMSRSGCKVGDSSGTAAAHKVLPRGLSPARQLLLPASESPHWSGAPVKPSPQAAAVEVEEEDGSESEESAGPLLKGKPRALGGAAAGGGAAAVPPGAAAGGVALVPKEDSRFSAPRVALVEQDAPMAPGRSPLATTVMDFIHVPILPLNHALLAARTRQLLEDESYDGGAGAASAFAPPRSSPCASSTPVAVGDFPDCAYPPDAEPKDDAYPLYSDFQPPALKIKEEEEGAEASARSPRSYLVAGANPAAFPDFPLGPPPPLPPRATPSRPGEAAVTAAPASASVSSASSSGSTLECILYKAEGAPPQQGPFAPPPCKAPGASGCLLPRDGLPSTSASAAAAGAAPALYPALGLNGLPQLGYQAAVLKEGLPQVYPPYLNYLRPDSEASQSPQYSFESLPQKICLICGDEASGCHYGVLTCGSCKVFFKRAMEGQHNYLCAGRNDCIVDKIRRKNCPACRLRKCCQAGMVLGGRKFKKFNKVRVVRALDAVALPQPVGVPNESQALSQRFTFSPGQDIQLIPPLINLLMSIEPDVIYAGHDNTKPDTSSSLLTSLNQLGERQLLSVVKWSKSLPGFRNLHIDDQITLIQYSWMSLMVFGLGWRSYKHVSGQMLYFAPDLILNEQRMKESSFYSLCLTMWQIPQEFVKLQVSQEEFLCMKVLLLLNTIPLEGLRSQTQFEEMRSSYIRELIKAIGLRQKGVVSSSQRFYQLTKLLDNLHDLVKQLHLYCLNTFIQSRALSVEFPEMMSEVIAAQLPKILAGMVKPLLFHKK

Test system: mUCP2 promoter
Test: NHR-promoter luciferase screen, mUCP2 promoter
Assay type: cell-based, mouse
Details: mUCP2 promoter reporter; co-transfected HR, with or without its ligand
How it was run: (§1)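 CV-1 cells were co-transfected with 50 ng NHR (homodimer or NHR/RXR heterodimer), 100 ng promoter-luciferase construct and 50 ng LacZ. Luciferase was normalized to LacZ and to a no-NHR/no-ligand control.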

| Molecule | Luc. act., normalized to lacZ |
| --- | --- |
| B1 | 58.8 |
| B2 | 129.8 |
| B3 | 54.4 |
| B4 | 178.8 |

Same assay, conditions: mUCP2 promoter reporter; co-transfected HR, with or without its ligand; relative to control

| Molecule | Normalized Luc. act., normalized to control |
| --- | --- |
| B1 | 0.5 |
| B2 | 1.2 |
| B3 | 0.5 |
| B4 | 1.6 |

Same assay, conditions: mUCP2 promoter-luciferase, CV-1 cells, NHR +/- ligand, control = 1.00

| Molecule | luciferase activity normalized to lacZ activity and to a control, mUCP2 |
| --- | --- |
| B1 | 0.54 |
| B2 | 1.18 |
| B3 | 0.49 |
| B4 | 1.63 |

Test system: mDio2 promoter
Test: NHR-promoter luciferase screen, mDio2 promoter
Assay type: cell-based, mouse
Details: Dio2; HR component without or with its ligand
How it was run: as §1

| Molecule | Luc. act., normalized to lacZ | Normalized Luc. act., normalized to control |
| --- | --- | --- |
| B1 | 12.7 | 0.8 |
| B2 | 12.4 | 0.8 |
| B3 | 15.3 | 1.0 |
| B4 | 21.4 | 1.4 |

Same assay, conditions: transcription factor +/- ligand; control = 1.00

| Molecule | mDio2 promoter reporter activity |
| --- | --- |
| B1 | 0.81 |
| B2 | 0.79 |
| B3 | 0.97 |
| B4 | 1.36 |

Test system: MCP-1 promoter
Test: NHR-promoter luciferase screen, MCP-1 promoter
Assay type: cell-based
Details: MCP-1 promoter reporter; HR without or with its ligand; relative to control
How it was run: as §1

| Molecule | Normalized Luc. act., normalized to control |
| --- | --- |
| B1 | 0.0 |
| B2 | 0.6 |
| B3 | 1.6 |
| B4 | 1.2 |

Same assay, conditions: MCP-1 promoter reporter; hormone receptor (HR) without or with its ligand

| Molecule | Luc. act., normalized to lacZ |
| --- | --- |
| B2 | 58.9 |
| B3 | 175.5 |
| B4 | 128.0 |

Same assay, conditions: transcription factor +/- ligand; control = 1.00

| Molecule | mMCP-1 promoter reporter activity |
| --- | --- |
| B1 | 0.00 |
| B2 | 0.55 |
| B3 | 1.64 |
| B4 | 1.20 |

Test system: mNPY promoter
Test: NHR-promoter luciferase screen, mNPY promoter
Assay type: cell-based, mouse
Details: Table 6d; luciferase activity relative to control (control = 1.00)
How it was run: as §1

| Molecule | Results of assays of transcription factor (+/- ligand) with mNPY |
| --- | --- |
| B1 | 0.58 |
| B2 | 0.72 |
| B3 | 0.48 |
| B4 | 1.09 |

Same assay, conditions: mNPY promoter; HR component with or without ligand

| Molecule | Luc. act., normalized to lacZ |
| --- | --- |
| B1 | 48.9 |
| B2 | 60.4 |
| B3 | 40.6 |
| B4 | 91.7 |

Same assay, conditions: mNPY promoter; HR component with or without ligand; relative to control

| Molecule | Normalized Luc. act., normalized to control |
| --- | --- |
| B1 | 0.6 |
| B2 | 0.7 |
| B3 | 0.5 |
| B4 | 1.1 |

Test system: hMyoD promoter
Test: NHR-promoter luciferase screen, hMyoD promoter
Assay type: cell-based, human
Details: MyoD promoter reporter; co-transfected HR, without or with its ligand
How it was run: as §1

| Molecule | Luc. act., normalized to lacZ |
| --- | --- |
| B1 | 37.1 |
| B2 | 51.9 |
| B3 | 35.6 |
| B4 | 70.4 |

Same assay, conditions: MyoD promoter reporter; co-transfected HR, without or with its ligand; relative to control

| Molecule | Normalized Luc. act., normalized to control |
| --- | --- |
| B1 | 0.6 |
| B2 | 0.8 |
| B3 | 0.6 |
| B4 | 1.1 |

Same assay, conditions: hMyoD promoter-luciferase, CV-1 cells, NHR +/- ligand, control = 1.00

| Molecule | luciferase activity normalized to lacZ activity and to a control, hMyoD |
| --- | --- |
| B1 | 0.59 |
| B2 | 0.82 |
| B3 | 0.56 |
| B4 | 1.11 |

Test system: hPPARg2 promoter
Test: NHR-promoter luciferase screen, hPPARg2 promoter
Assay type: cell-based, human
Details: PPARG2 promoter; hormone receptor with or without its ligand
How it was run: as §1

| Molecule | Luc. act., normalized to lacZ |
| --- | --- |
| B1 | 1.0 |
| B2 | 1.4 |
| B3 | 1.7 |
| B4 | 1.8 |

Same assay, conditions: PPARG2 promoter; hormone receptor with or without its ligand; relative to control

| Molecule | Normalized Luc. act., normalized to control |
| --- | --- |
| B1 | 0.5 |
| B2 | 0.7 |
| B3 | 0.8 |
| B4 | 0.9 |

Same assay, conditions: Table 6d; luciferase activity relative to control (control = 1.00)

| Molecule | Results of assays of transcription factor (+/- ligand) with hPPARg2 |
| --- | --- |
| B1 | 0.51 |
| B2 | 0.68 |
| B3 | 0.85 |
| B4 | 0.88 |

Source: US20110263454A1, “Methods of Identifying Functional Characteristics of Promoters, Transcription Modifying Proteins and Transcription Modulating Agents” (Salk Institute for Biological Studies, priority 2008, published 2011)
